T1: human GIP receptor (human) (UniProt P48546)
T1 sequence (looked up): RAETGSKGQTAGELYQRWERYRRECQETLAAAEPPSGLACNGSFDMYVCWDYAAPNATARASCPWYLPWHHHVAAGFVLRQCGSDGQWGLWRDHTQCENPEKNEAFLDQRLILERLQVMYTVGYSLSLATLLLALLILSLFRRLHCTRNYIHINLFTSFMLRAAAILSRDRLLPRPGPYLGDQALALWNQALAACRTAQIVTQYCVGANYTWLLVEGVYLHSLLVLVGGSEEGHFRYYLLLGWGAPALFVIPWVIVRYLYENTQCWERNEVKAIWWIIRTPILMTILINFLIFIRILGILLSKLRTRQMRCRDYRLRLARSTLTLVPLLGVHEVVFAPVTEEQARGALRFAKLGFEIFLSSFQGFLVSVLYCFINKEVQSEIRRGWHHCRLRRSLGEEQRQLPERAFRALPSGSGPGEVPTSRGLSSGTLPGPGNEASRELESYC


Experiments:
Experiment in all cases: cell-based or functional assay
[1] = molecular target: T1, human GIP receptor (human)
hGLP-1R = hGLP-1R (Homo sapiens, UniProt P43220)
hGLP-1R, sequence (P43220 24-463): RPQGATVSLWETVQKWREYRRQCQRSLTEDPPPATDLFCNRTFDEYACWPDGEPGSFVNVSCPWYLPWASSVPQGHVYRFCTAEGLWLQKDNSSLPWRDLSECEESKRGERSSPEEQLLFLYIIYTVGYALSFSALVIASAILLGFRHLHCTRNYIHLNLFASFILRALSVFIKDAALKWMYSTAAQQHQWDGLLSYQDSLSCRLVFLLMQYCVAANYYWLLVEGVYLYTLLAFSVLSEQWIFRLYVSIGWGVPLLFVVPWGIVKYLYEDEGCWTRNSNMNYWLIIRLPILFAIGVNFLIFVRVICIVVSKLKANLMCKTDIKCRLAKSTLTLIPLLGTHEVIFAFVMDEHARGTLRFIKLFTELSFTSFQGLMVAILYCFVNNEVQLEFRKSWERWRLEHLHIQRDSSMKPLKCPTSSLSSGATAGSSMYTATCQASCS

[2] = molecular target: human glucagon receptor (human) (UniProt P47871)
human glucagon receptor (human), sequence (P47871 26-477): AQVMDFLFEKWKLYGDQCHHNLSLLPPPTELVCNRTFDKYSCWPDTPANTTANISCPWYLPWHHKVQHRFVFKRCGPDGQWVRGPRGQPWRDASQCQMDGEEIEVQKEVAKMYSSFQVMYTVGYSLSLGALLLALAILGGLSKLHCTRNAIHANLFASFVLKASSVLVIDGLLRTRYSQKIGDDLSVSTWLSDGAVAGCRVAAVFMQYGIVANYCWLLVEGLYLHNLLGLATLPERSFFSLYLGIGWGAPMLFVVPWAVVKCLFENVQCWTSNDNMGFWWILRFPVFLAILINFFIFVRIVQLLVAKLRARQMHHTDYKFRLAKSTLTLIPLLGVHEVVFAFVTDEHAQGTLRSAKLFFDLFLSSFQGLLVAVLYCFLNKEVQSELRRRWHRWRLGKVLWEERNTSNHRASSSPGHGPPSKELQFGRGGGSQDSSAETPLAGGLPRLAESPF

Row | Binder | Relative cAMP EC50 [1] [nM] | cAMP Rel EC50, nM (in the presence of 1% HSA) [1] [nM] | Relative cAMP EC50 (hGLP-1R) [nM] | cAMP Rel EC50, nM (in the presence of 1% HSA) (hGLP-1R) [nM] | Relative cAMP EC50 [2] [nM] | cAMP Rel EC50, nM (in the presence of 1% HSA) [2] [nM] | cAMP Rel EC50 (in the presence of 1% HSA) [1] [nM] | cAMP Rel EC50 (in the presence of 1% HSA) (hGLP-1R) [nM] | cAMP Rel EC50 (in the presence of 1% HSA) [2] [nM] | Relative cAMP EC50, nM (0.1% casein) [1] [nM] | cAMP Rel EC50, nM (1% HSA) [1] [nM] | Relative cAMP EC50, nM (0.1% casein) (hGLP-1R) [nM] | cAMP Rel EC50, nM (1% HSA) (hGLP-1R) [nM] | Relative cAMP EC50, nM (0.1% casein) [2] [nM] | cAMP Rel EC50, nM (1% HSA) [2] [nM]
1 | YXQGTFTSDFSXXLDKKAQXAFIEYLLEGGPSSGEPPPSGS (synthetic construct; SITE 2: note = 2-Aminoisobutyric Acid; SITE 12: note = L-ornithine; SITE 13: note = alpha-methyl-leucine; SITE 17: note = Lysine is chemically modified through conjugation of the epsilon-amino group of the Lysine side chain with (2-[2-(2-Amino-ethoxy)-ethoxy]-acetyl)-(gamma-Glu)) [Example 131] | 0.416 | 91.8 | 5.51 | 984 | 2.64 | 976 |  |  |  |  |  |  |  |  | 
2 | YXQGTFTSDFSKXLDKKAQXAFIEYLLAGGPSSGAPPPSGS (synthetic construct; SITE 2: note = 2-Aminoisobutyric Acid; SITE 13: note = alpha-methyl-leucine; SITE 17: note = Lysine is chemically modified through conjugation of the epsilon-amino group of the Lysine side chain with (2-[2-(2-Amino-ethoxy)-ethoxy]-acetyl)-(gamma-Glu)-CO-(CH2) 18-CO2H; SITE 20: n) [Example 14] | 0.17 |  | 1.67 |  | 7.23 |  | 34.7 | 232 | 1420 |  |  |  |  |  | 
3 | YXQGTFTSDFSKXLDKKAQXAFIEYLLAGGPSSGEPPPSEG (synthetic construct; SITE 2: note = 2-Aminoisobutyric Acid; SITE 13: note = alpha-methyl-leucine; SITE 17: note = Lysine is chemically modified through conjugation of the epsilon-amino group of the Lysine side chain with (2-[2-(2-Amino-ethoxy)-ethoxy]-acetyl)2-(gamma-Glu)-CO-(CH2 )16-CO2H; SITE 20:) [Example 25] | 0.128 |  | 3.34 |  | 6.8 |  | 19.8 | 520 | 939 |  |  |  |  |  | 
4 | YXQGTFTSDFSXXLDKKAQXAFIEYLLEGGESSGAPPPSGS (synthetic construct; SITE 2: note = 2-Aminoisobutyric Acid; SITE 12: note = L-ornithine; SITE 13: note = alpha-methyl-leucine; SITE 17: note = Lysine is chemically modified through conjugation of the epsilon-amino group of the Lysine side chain with (2-[2-(2-Amino-ethoxy)-ethoxy]-acetyl)-(gamma-Glu)) [Example 145] | 0.539 | 108 | 4.26 | 1480 | 3.14 | 693 |  |  |  |  |  |  |  |  | 
5 | YXQGTFTSDFSKXLDKKAQXAFIEYLLEGGESSGAPPPSGS (synthetic construct; SITE 2: note = 2-Aminoisobutyric Acid; SITE 13: note = alpha-methyl-leucine; SITE 17: note = Lysine is chemically modified through conjugation of the epsilon-amino group of the Lysine side chain with (2-[2-(2-Amino-ethoxy)-ethoxy]-acetyl)2-(gamma-Glu)-CO-(CH2 )16-CO2H; SITE 20:) [Example 147] |  |  |  |  |  |  |  |  |  | 0.343 | 108 | 4.26 | 964 | 4.39 | 877
6 | YXQGTFTSDFSQXLDKKAQXAFIEYLLEGGPSSGAPPPSGS (synthetic construct; SITE 2: note = 2-Aminoisobutyric Acid; SITE 13: note = alpha-methyl-leucine; SITE 17: note = Lysine is chemically modified through conjugation of the epsilon-amino group of the Lysine side chain with (2-[2-(2-Amino-ethoxy)-ethoxy]-acetyl)-(gamma-Glu)-CO-(CH2) 16-CO2H; SITE 20: n) [Example 150] |  |  |  |  |  |  |  |  |  | 0.346 | 50.6 | 2.63 | 463 | 5.37 | 1920
7 | YXQGTFTSDFSKXLDKKAQXAFIQYLLAGGPSSGEPPPSEG (synthetic construct; SITE 2: note = 2-Aminoisobutyric Acid; SITE 13: note = alpha-methyl-leucine; SITE 17: note = Lysine is chemically modified through conjugation of the epsilon-amino group of the Lysine side chain with (2-[2-(2-Amino-ethoxy)-ethoxy]-acetyl)-(gamma-Glu)-CO-(CH2) 18-CO2H; SITE 20: n) [Example 27] | 0.41 |  | 2.33 |  | 8.91 |  | 72.3 | 464 | 1180 |  |  |  |  |  | 
8 | YXQGTFTSDFSXXLDKKAQXAFIEYLLEAGPSSGEPPPSGT (synthetic construct; SITE 2: note = 2-Aminoisobutyric Acid; SITE 12: note = L-ornithine; SITE 13: note = alpha-methyl-leucine; SITE 17: note = Lysine is chemically modified through conjugation of the epsilon-amino group of the Lysine side chain with (2-[2-(2-Amino-ethoxy)-ethoxy]-acetyl)2-(gamma-Glu)) [Example 156] |  |  |  |  |  |  |  |  |  | 0.208 | 25.8 | 3.37 | 695 | 3.62 | 1520
9 | YXQGTFTSDFSXXLDKKAQXAFIEYLLEGGPSSGAPPPEGT (synthetic construct; SITE 2: note = 2-Aminoisobutyric Acid; SITE 12: note = L-ornithine; SITE 13: note = alpha-methyl-leucine; SITE 17: note = Lysine is chemically modified through conjugation of the epsilon-amino group of the Lysine side chain with (2-[2-(2-Amino-ethoxy)-ethoxy]-acetyl)-(gamma-Glu)) [Example 160] |  |  |  |  |  |  |  |  |  | 0.354 | 44.4 | 5.39 | 482 | 4.32 | 479
10 | YXQGTFTSDFSXXLDKKAQXAFIEWLLEGGHSSGEPPPEGS (synthetic construct; SITE 2: note = 2-Aminoisobutyric Acid; SITE 12: note = L-ornithine; SITE 13: note = alpha-methyl-leucine; SITE 17: note = Lysine is chemically modified through conjugation of the epsilon-amino group of the Lysine side chain with (2-[2-(2-Amino-ethoxy)-ethoxy]-acetyl)-(gamma-Glu)) [Example 127] | 0.312 | 62.9 | 4.8 | 1000 | 4.35 | 1010 |  |  |  |  |  |  |  |  | 
11 | YXQGTFTSDFSKXLDKKAQXAFIEWLLAGGPSSGEPPPSEG (synthetic construct; SITE 2: note = 2-Aminoisobutyric Acid; SITE 13: note = alpha-methyl-leucine; SITE 17: note = Lysine is chemically modified through conjugation of the epsilon-amino group of the Lysine side chain with (2-[2-(2-Amino-ethoxy)-ethoxy]-acetyl)-(gamma-Glu)-CO-(CH2) 18-CO2H; SITE 20: n) [Example 20] | 0.381 |  | 2.45 |  | 15.4 |  | 42.3 | 326 | 587 |  |  |  |  |  | 
12 | YXQGTFTSDFSRXLDKKAQXAFIEYLLEGGESSGAPPPSGS (synthetic construct; SITE 2: note = 2-Aminoisobutyric Acid; SITE 13: note = alpha-methyl-leucine; SITE 17: note = Lysine is chemically modified through conjugation of the epsilon-amino group of the Lysine side chain with (2-[2-(2-Amino-ethoxy)-ethoxy]-acetyl)2-(gamma-Glu)-CO-(CH2 )16-CO2H; SITE 20:) [Example 149] |  |  |  |  |  |  |  |  |  | 0.46 | 44.9 | 3.85 | 801 | 12.6 | 1420
13 | YXQGTFTSDFSXXLDKKAQXAFIEYLLEGGPSSGAPPPGGQ (synthetic construct; SITE 2: note = 2-Aminoisobutyric Acid; SITE 12: note = L-ornithine; SITE 13: note = alpha-methyl-leucine; SITE 17: note = Lysine is chemically modified through conjugation of the epsilon-amino group of the Lysine side chain with (2-[2-(2-Amino-ethoxy)-ethoxy]-acetyl)-(gamma-Glu)) [Example 159] |  |  |  |  |  |  |  |  |  | 0.343 | 49.7 | 4.15 | 588 | 6.89 | 475

— patent publication US20240270821A1, “GIP/GLP1/GCG TRI-RECEPTOR AGONISTS AND USES THEREOF” (priority 2023, published 2024)
